Reference: US20240109971A1 (MONASH UNIVERSITY, published 2024)
Where a chain is given by its changes, count along the chain named. Blank lines part the entries; values can stand above or below the binder they belong to.

Assays:
human CCR6 [1] = target: T1, human CCR6 (human, UniProt P51684 1-374); test: FACS binding assay on hCCR6 L1.2 cells, PE-conjugated anti-human Fc detection; 1-21/WT mutant
T1 construct: also called hCCR6; CD196
T1 sequence: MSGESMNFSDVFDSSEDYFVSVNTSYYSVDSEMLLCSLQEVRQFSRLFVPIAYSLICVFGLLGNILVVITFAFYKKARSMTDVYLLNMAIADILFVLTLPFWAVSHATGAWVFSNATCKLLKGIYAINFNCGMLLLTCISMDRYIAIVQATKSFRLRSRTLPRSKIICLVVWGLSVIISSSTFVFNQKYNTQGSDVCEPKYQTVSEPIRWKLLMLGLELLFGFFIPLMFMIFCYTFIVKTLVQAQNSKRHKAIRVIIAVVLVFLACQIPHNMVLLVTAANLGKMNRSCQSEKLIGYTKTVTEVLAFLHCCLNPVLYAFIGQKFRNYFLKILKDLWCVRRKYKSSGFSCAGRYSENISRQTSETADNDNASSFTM
Experimental: (§1) Binding characteristics of hAB6 and mutants hAB6-IgG1 to human CCR6 was performed using a FACS binding assay using cell line expressing human CCR6 (L1.2 human CCR6). Approximately 2.5 10⁵ hCCR6 L1.2 cells/test were washed with FACS binding buffer (FBB) (PBS, 0.5% BSA, 0.1% NaN3 (pH 7.4)), and stained with hAB6 or hAB6 mutants (4.4 μg/ml) and serial 3-fold dilutions of antibodies. After 1 h on ice, the cells were washed with FBB (pH 7.4) and with an anti-human Fc antibody PE-conjugated (Jackson ImmunoResearch). After 30 min on ice, the cells were washed 3 times with FBB (pH 7.4), and resuspended in 1% formaldehyde, and analyzed using a FACS LSR flow cytometer (BD Immunocytometry Systems). EC₅₀ values were calculated using GraphPad Prism.

human CCR6 [2] = target: T1, human CCR6; test: FACS binding assay on hCCR6 L1.2 cells, PE-conjugated anti-human Fc detection; 1-21/3-3 mutant
Experimental: as §1

human CCR6 [3] = target: T1, human CCR6; test: FACS binding assay on hCCR6 L1.2 cells, PE-conjugated anti-human Fc detection; WT/3-3 mutant
Experimental: as §1

human CCR6 [4] = target: T1, human CCR6; test: FACS binding assay on hCCR6 L1.2 cells, PE-conjugated anti-human Fc detection; 1-23/WT mutant
Experimental: as §1

human CCR6 [5] = target: T1, human CCR6; test: FACS binding assay on hCCR6 L1.2 cells, PE-conjugated anti-human Fc detection; hAB6 (WT/WT)
Experimental: as §1

human CCR6 [6] = target: T1, human CCR6; test: FACS binding assay on hCCR6 L1.2 cells, PE-conjugated anti-human Fc detection; 1-23/3-3 mutant
Experimental: as §1

hCXCR1 = target: T2, hCXCR1 (human, UniProt P25024 1-350); test: flow cytometry, hybridoma culture supernatant on L1.2/hCXCR1 transfectants
T2 construct: whole, on cells; also called hCXCRI; human CXCR1 transfected L1.2 cells
T2 sequence (looked up): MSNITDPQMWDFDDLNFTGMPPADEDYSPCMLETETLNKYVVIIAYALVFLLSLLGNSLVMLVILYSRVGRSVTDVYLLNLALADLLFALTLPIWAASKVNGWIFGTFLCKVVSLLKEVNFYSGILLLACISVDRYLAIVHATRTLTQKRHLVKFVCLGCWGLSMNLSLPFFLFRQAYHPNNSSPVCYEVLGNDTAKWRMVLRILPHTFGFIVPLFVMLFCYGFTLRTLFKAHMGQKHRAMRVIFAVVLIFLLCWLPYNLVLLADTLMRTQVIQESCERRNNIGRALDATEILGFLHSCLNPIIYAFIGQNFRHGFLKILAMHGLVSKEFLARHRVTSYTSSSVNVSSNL
Experimental: (§2) Monoclonal antibodies reactive with CCR6 were identified using human CCR6 transfected L1.2 cells, and untransfected L1.2 cells, or L1.2 cells transfected with unrelated or closely receptors such as hCXCRI, hCXCR2 or hCXCR3 using immunofluorescent staining and analysis using a FACSCalibur (BD Biosciences). Monoclonal antibody staining of cells was performed using standard procedures as described previously (Lee et al., 2006, Nat. Biotech. 24:1279-1284).
(§3) L1.2 transfectants expressing high levels of hCCR6 were used to immunize mice, and approximately 40 monoclonal antibodies were initially identified via flow cytometry that reacted with L1.2 cells transfected with hCCR6, of which approximately 10 reacted specifically with L1.2/hCCR6 transfectants but not with untransfected L1.2 cells or with L1.2 cells transfected with the closely related receptors hCXCRI, hCXCR2 or hCXCR3 (FIG. 3).

human CCR6 [7] = target: T1, human CCR6; test: competition with 125I-MIP-3α for L1.2/hCCR6 transfectants, partially purified mAb
Experimental: For ligand binding analysis, recombinant human CCL20 (MIP3α) (“ligand”) was obtained from Peprotech (New Jersey, USA). […] Cells were washed once in binding buffer (50 mM Hepes, pH 7.5, 1 mM CaCl, 5 mM MgCb, 0.5% BSA) and resuspended in binding buffer at a concentration of 2.5×10^6 cells/ml. Cold Purified monoclonal antibody or diluted hybridoma culture medium (cold competitor) was added to a 96-well plate followed by an equal volume (40 μl) binding buffer containing 1×10^5 cells. Cells and competitor were preincubated at room temperature for 15 min. Then radiolabeled ligand (final concentration 0.5-2 nM) was added to each well to give a final reaction volume of 120 μl. After a 60-min incubation at room temperature, the cells were washed three times with 1 ml of binding buffer containing 150 mM NaCl. The radioactivity (amount of bound label) in the cell pellets was counted in a TopCount liquid scintillation counter (Packard). Non-specific background binding was calculated by incubating cells […]. Samples were assayed in duplicate.
After incubation and washing the amount of label bound to cells was measured and the percentage inhibition determined by comparison to a control reaction with no added antibody (FIGS. 1 and 5).

hCXCR2 = target: T3, hCXCR2 (human, UniProt P25025 1-360); test: flow cytometry, hybridoma culture supernatant on L1.2/hCXCR2 transfectants
T3 construct: whole, on cells; also called human CXCR2 transfected L1.2 cells
T3 sequence (looked up): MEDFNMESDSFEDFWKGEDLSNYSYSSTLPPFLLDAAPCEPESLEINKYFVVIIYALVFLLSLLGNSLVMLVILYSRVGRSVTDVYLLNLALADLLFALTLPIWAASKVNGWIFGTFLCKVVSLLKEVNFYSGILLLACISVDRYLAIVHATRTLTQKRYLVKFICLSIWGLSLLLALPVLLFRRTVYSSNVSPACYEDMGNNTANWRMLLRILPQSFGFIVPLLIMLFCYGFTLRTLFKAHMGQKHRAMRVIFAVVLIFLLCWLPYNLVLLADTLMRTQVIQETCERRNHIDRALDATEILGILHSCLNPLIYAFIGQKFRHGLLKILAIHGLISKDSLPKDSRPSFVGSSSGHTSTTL
Experimental: as §2, §3

[8] = target: T4, Peptide 1 (amino acid position 1-28 of the human CCR6) (human, biotinylated); test: ELISA, biotinylated peptide on a streptavidin-coated plate
T4 construct: also called first 28 AA
T4 peptide: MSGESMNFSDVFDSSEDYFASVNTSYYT
Experimental: Two overlapping biotinylated peptides spanning the entire N-terminal region of human CCR6 were then synthesized and used in more defined anti-CCR6 mAb epitope mapping studies. Peptide 1 ([…], SEQ ID NO: 2) corresponds to amino acid position 1-28 of the human CCR6 and Peptide 2 ([…], SEQ ID NO: 101) corresponds to amino acid position 18-46 of the human CCR6. Briefly, multiwell plates were coated with streptavidin and washed before the biotinylated peptides were added to separate wells and incubated to facilitate binding of the peptides to the plate. Different anti-human CCR6 antibodies were then tested by adding the respective antibodies to the wells of the plate and incubating the plate. An isotype control and buffer only were included as negative controls. Following washing, appropriate conjugated antibodies were added and the plates were incubated. The plates were washed again and binding of the antibodies to the immobilised peptides was visualised (FIGS. 8 and 9).

hCXCR3 = target: T5, hCXCR3 (human, UniProt P49682 1-368); test: flow cytometry, hybridoma culture supernatant on L1.2/hCXCR3 transfectants
T5 construct: whole, on cells; also called human CXCR3 transfected L1.2 cells
T5 sequence (looked up): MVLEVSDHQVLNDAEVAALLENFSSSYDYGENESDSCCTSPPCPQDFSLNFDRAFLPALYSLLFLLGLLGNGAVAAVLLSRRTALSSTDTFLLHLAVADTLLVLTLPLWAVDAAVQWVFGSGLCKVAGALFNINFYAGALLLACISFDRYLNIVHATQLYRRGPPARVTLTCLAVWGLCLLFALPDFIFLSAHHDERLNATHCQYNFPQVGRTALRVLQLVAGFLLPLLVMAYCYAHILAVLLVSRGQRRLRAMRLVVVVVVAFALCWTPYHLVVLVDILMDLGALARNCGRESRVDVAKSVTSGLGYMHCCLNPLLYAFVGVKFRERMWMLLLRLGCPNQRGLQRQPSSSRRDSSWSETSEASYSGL
Experimental: as §2, §3

B1: hAB6 mutant 1-21/WT (antibody, V domains shown)
VH: EVQLVESGGGLVQPGGSLRLSCAASGFPFSDYYLYWVRQAPGKGLEWVAYITNGVGRTYYSDSVKGRFTISRDNAKNTLYLQMNSLRDEDTAVYYCTSPPLGGAWFGYWGQGTLVTVS
VL: DIVMTQSPLSLPVTPGEPASISCRSSQSIVHSNGNTYLEWYLQKPGQSPRLLIYKVSKRFSGVPDRFSGSGSGTDFTLKISRVEAEDVGVYYCFQGSHVPLTFGQGTKLEIKR
notes: IgG1 format
- EC50 (human CCR6 [1]): 0.46 nM

B3: hAB6 mutant WT/3-3 (antibody, V domains shown)
VH: B1 VH with G107A
VL: B1 VL with Q27R
notes: IgG1 format
- EC50 (human CCR6 [3]): 3.2 nM

B4: hAB6 mutant 1-23/WT (antibody, V domains shown)
VH: B1 VH with A23V
VL: B1 VL
notes: IgG1 format
- EC50 (human CCR6 [4]): 0.39 nM

B7: AB1 (antibody, V domains shown)
VH: EVNLVESGGGLVQPGGSLKLSCAASGFTFSDYYMYWVRQTPEKRLEWVTYITNGDGRTYYSDTVRGRFTISRDNAKNTLYLQMSRLKSEDTAMYYCTSPPLGGAWFGYWGQGTLVTVS
VL: DVLMTQTPLSLPVSLGDQASISCRSSQSIVHSNGNTYLEWYLQKPGQSPKLLIYKVSKRFSGVPDRFSGSGSGTDFTLKISRVEAEDLGVYYCFQGSHVPLTFGAGTKLELKR
notes: Mouse hybridoma antibody, isotype IgG1; also called AB1-O17
- binding result (hCXCR1): no binding (tested: not given (culture supernatant))
- binding result (human CCR6 [7]): binds
- binding result (hCXCR2): no binding (tested: not given (culture supernatant))
- binding result [8]: binds
- binding result (hCXCR3): no binding (tested: not given (culture supernatant))

The remaining lines, values ahead:

- EC50 (human CCR6 [2]): 0.41 nM
B2: hAB6 mutant 1-21/3-3 (antibody, V domains shown)
VH: B1 VH
VL: B1 VL with Q27R
notes: IgG1 format

- EC50 (human CCR6 [5]): 3.4 nM
B5: humanized AB6 mAb (antibody, V domains shown)
VH: B1 VH with G107A
VL: B1 VL
notes: also called hAB6; hAB6-IgG1

- EC50 (human CCR6 [6]): 1.2 nM
B6: hAB6 mutant 1-23/3-3 (antibody, V domains shown)
VH: B1 VH with A23V
VL: B1 VL with Q27R
notes: IgG1 format
